Values of other authors in PMC7295915.
pKd: −log10 of the molar value. One block for each substance: values may come before it.

What was measured:
CD80 (Homo sapiens) = CD80 (Homo sapiens) (UniProt P33681)
ICAM-1 (Homo sapiens) = ICAM-1 (Homo sapiens) (UniProt P05362)
CD48 (Homo sapiens) = CD48 (Homo sapiens) (UniProt P09326)
CD40L (Homo sapiens) = CD40L (Homo sapiens) (UniProt P29965)
CD40L (Homo sapiens), sequence (P29965 113-261): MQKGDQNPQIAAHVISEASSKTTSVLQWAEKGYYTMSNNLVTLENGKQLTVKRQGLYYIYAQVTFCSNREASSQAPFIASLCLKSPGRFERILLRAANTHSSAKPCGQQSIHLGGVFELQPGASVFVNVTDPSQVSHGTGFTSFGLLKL

CD40, sequence (P25942 21-277): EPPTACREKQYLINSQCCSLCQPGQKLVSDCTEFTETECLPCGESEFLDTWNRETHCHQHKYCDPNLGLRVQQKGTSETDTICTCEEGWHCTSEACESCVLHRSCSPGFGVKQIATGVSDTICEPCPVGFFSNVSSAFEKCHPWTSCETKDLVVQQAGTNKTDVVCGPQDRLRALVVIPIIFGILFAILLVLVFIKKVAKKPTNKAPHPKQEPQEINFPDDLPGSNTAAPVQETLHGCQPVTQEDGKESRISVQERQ
LFA-1, sequence (P20701 26-1090): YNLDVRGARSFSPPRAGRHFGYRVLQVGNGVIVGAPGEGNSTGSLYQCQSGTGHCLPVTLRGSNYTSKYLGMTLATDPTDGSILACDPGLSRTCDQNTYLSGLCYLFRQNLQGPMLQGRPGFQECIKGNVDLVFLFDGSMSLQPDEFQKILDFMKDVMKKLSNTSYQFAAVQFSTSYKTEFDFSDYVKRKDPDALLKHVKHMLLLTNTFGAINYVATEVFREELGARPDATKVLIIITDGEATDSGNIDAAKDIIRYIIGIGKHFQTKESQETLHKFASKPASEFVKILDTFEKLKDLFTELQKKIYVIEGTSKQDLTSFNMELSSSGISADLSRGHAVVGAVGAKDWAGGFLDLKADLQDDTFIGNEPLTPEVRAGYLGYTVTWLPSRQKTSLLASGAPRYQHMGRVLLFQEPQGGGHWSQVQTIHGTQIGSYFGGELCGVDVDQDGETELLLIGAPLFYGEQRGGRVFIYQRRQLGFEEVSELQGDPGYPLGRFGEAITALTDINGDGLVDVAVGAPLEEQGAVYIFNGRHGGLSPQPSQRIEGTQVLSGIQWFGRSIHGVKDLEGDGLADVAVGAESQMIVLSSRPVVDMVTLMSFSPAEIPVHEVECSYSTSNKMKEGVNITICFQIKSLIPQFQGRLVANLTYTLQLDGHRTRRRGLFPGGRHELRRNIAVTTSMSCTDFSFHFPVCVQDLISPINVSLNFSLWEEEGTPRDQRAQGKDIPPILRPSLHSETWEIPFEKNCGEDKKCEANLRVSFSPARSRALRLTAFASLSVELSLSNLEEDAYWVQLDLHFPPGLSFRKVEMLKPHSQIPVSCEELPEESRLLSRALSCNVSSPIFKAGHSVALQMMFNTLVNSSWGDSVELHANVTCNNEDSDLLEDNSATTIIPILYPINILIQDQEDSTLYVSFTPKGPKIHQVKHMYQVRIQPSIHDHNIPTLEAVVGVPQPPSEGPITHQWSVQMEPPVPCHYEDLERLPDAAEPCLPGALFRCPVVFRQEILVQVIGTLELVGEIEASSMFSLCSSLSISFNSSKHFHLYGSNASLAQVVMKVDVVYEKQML
LFA-1, sequence (P05107 23-700, further chain): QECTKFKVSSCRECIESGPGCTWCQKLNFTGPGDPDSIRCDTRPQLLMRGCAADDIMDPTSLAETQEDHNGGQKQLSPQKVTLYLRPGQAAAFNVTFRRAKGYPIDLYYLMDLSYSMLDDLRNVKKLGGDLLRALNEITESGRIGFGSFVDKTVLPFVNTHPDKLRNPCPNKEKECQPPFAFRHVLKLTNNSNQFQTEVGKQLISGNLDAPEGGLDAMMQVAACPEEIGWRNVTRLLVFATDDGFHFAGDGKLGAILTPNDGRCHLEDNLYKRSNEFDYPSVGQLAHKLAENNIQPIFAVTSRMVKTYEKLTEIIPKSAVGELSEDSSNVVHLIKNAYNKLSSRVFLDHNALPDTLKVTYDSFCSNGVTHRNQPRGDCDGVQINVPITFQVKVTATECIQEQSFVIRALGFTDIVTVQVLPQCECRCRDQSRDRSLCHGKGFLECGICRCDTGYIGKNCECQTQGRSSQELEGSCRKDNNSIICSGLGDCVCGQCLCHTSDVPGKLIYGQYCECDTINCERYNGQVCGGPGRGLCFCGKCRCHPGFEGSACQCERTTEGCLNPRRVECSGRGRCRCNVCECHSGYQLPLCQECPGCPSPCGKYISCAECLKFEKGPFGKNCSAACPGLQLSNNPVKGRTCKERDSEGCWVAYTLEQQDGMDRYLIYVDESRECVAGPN
CD80 (Homo sapiens), sequence (P33681 35-242): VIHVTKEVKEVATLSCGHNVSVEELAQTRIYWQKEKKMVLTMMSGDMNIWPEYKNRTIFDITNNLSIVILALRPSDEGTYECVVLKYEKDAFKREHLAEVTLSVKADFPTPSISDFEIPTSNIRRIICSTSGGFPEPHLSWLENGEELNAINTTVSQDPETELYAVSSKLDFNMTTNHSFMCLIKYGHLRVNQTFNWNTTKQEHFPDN
CD2, sequence (P06729 25-209): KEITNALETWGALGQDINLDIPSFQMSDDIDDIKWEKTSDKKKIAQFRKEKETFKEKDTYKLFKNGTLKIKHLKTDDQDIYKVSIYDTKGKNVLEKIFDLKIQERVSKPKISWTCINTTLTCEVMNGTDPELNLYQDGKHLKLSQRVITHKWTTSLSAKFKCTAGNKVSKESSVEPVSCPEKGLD
ICAM-1 (Homo sapiens), sequence (P05362 28-480): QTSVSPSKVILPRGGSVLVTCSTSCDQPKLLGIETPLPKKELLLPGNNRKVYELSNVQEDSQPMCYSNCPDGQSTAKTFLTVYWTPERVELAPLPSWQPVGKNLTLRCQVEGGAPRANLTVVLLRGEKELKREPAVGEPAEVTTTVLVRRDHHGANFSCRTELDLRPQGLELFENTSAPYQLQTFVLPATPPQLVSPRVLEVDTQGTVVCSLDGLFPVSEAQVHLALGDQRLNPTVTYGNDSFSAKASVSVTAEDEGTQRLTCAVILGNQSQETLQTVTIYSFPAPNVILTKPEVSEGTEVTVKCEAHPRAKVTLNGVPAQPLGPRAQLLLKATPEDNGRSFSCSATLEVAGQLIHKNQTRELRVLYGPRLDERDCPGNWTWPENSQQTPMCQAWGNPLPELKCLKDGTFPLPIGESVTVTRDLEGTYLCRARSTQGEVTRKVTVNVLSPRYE
CD48 (Homo sapiens), sequence (P09326 27-220): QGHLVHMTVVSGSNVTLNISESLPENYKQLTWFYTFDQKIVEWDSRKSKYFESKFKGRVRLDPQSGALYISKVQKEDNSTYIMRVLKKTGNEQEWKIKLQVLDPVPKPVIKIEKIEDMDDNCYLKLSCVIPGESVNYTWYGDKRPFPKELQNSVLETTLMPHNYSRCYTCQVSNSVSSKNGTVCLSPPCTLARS

- pKd (CD80 (Homo sapiens)): 5.40
Substance: CD28 (from UniProt P10747)

- pKd (ICAM-1 (Homo sapiens)): 6.30
Substance: LFA-1 (from UniProt P20701)

- pKd (CD48 (Homo sapiens)): 4.00
Substance: CD2 (from UniProt P06729)

- pKd (CD40L (Homo sapiens)): 6.70
Substance: CD40 (from UniProt P25942)
